From US7470669B2, “Isolated polypeptide comprising a leptin fragment” (Serono Genetics Institute, S.A., priority 1999, dated 2008)

Legend:
LSR = test: BUD assay of 125I-LDL in PLC cells transfected with truncated human LSR; assay type: cell-based; details: corrected for total protein, depending on oleate concentration
From the text: Method of Cloning & Testing. • 1. Digest Human LSR plasmids with enzymes of interest under appropriate conditions. Separate the appropriate insert fragment from the vector using agarose gel electrophoresis and Qiaquick gel extraction columns. Note: For constructs 1, 2, 3, 4a, 5, and 6 pTracerCMV2 LSR α was used as the source for the insert. For construct 4b, pTracerCMV2 LSR α′ was used as the source for the insert. For 4c, pTracerCMV2 LSR β was used as the source for the insert. • 2. Digest the pcDNA/HisMax vector in the appropriate reading frame with the enzymes of interest. Purify using agarose gel electrophoresis and Qiaquick gel extraction columns. • 3. If necessary, treat insert fragments with Klenow DNA polymerase or T4 DNA polymerase I to blunt 3′ overhangs. […] Verify correct clones by having them sequenced to ensure that they are in the proper reading frame and that there are no amino acid changes. • 8. […]
BUD Assay Methods: • 1. […] Remove suramin into gamma counter tubes, and count for radioactivity. […] Recover the cell lysates into gamma counter tubes and count for radioactivity. […] After cell lysates have been counted, determine the protein concentration per mL so that data can be reported as ng ^125I-LDL bound/mg of total protein. Protein is determined using the BCA assay from Pierce according to the manufacturer's instructions. […]

[1] = tested on: bovine brain capillary endothelial cells; test: Leptin transcytosis in blood-brain barrier in vitro model; assay type: cell-based; details: 10 ng/mL 125I-leptin + 2 mg/mL lactoferrin
Procedure: Cells were incubated with ^125I-leptin alone (10,000 dpm/ng) (closed squares), with 1 μg/mL unlabelled leptin (triangles), 50 μg/mL MP (circles), 50 μg/mL HP (open squares), or 2 mg/mL lactoferrin (asterisks).
Human leptin transport through the blood-brain barrier (BBB) is studied using an in vitro model (Dehouck, et al J Neurochem 54:1798-801, 1990 hereby incorporated herein by reference in its entirety including any figures, tables, or drawings). This model closely mimics the in vivo situation with regard to the selective passage of nutrients and drugs through the cerebro-vascular endothelium. […] Briefly, this model consists of a co-culture of bovine brain capillary endothelial cells (ECs) and rat astrocytes (FIG. 31). The astrocytes are seeded on the plastic of a six-well dish and grown for 3 weeks. […]
Leptin transcytosis: Experiments were performed on brain capillary endothelial cells in coculture with astrocytes for 16 days. […] At the end of the experiment, the amount of radioactivity of each well was counted. […]
The transport of molecules through the endothelial monolayer was determined for each time point as % passage: % passage of radiolabelled molecule through the endothelium: dpm found in the lower compartment at a time point divided by the initial dpm found in the upper compartment: % transport at 30 min=(lower dpm t30/upper dpm)*100.

ob/ob mice = test: Postprandial plasma TG response after high-fat test meal in ob/ob mice; assay type: in vivo, mouse; details: i.v. 0.5 μg recombinant mouse leptin and/or 2.5 mg lactoferrin, mean ± SD
Procedure: FIGS. 11A and 11B show the effect of mouse leptin (FIG. 11A) or leptin peptide (FIG. 11B) on postprandial plasma TG response in ob/ob mice. […] Postprandial triglyceridemia was measured as described previously. Each point represents the mean±SEM (A: saline, n=8, leptin, n=7; leptin peptide: saline, n=8, leptin, n=8). […] Primary cultures of rat hepatocytes were incubated 30 min at 37° C. with increasing concentrations of mouse leptin peptide. Oleate (0.5 mM) and ^125I-LDL (20 μg/mL) were added and the cells were incubated 2 h at 37° C. After washing, the amount of 125I-LDL bound to the cell surface was measured as described in the Examples section herein.
Mice that were fasted for 2-3 hours were gavage-fed 300 μL of a test meal consisting of 60% fat (37% saturated, 27% mono-, and 36% polyunsaturated fatty acids), 20% protein and 20% carbohydrate, and providing 56 kcal of energy/kg (1.5 g butter, 1.5 g sunflower oil, 2.5 g nonfat dry milk, 2.5 g sucrose and 3 ml water). […] TG concentrations were determined using a commercially available enzymatic kit with controls included in each assay (Precinorm L, Roche-Boehringer Mannheim; Lyotrol N, BioMérieux).
The inhibition of the intestinal absorption of dietary lipids by leptin was also investigated. […] Blood samples were taken at 2 and 3 h after the test meal, and plasma TG concentrations were measured (see Table, below). […]

Row | Molecule | increase in LDL metabolism (LSR) [fold] | amount of leptin transported [1] | Plasma TG 2-3 hours after test meal (ob/ob mice)
1 | C-terminal portion from AA 353 to 541: truncated human LSR construct, AA 353 to 541 (protein, UniProt Q86X29 353-541, looked up, fragment) PGGYPGDVDRSSSAGGQGSYVPLLRDTDSSVASEVRSGYRIQASQQDDSMRVLYYMEKELANFDPSRPGPPSGRVERAMSEVTSLHEDDWRSRPSRGPALTPIRDEEWGGHSPRSPRGWDQEPAREQAGGGWRARRPRARSVDALDDLTPPSTAESGSRSPTSNGGRSRAYMPPRSRSRDDLYDQDDSR | ~2 |  | 
2 | Lactoferrin: a milk protein that inhibits the removal of dietary lipid by the liver; inhibitor of LSR (protein, UniProt P02788 20-710, looked up) Lactotransferrin: GRRRSVQWCAVSQPEATKCFQWQRNMRKVRGPPVSCIKRDSPIQCIQAIAENRADAVTLDGGFIYEAGLAPYKLRPVAAEVYGTERQPRTHYYAVAVVKKGGSFQLNELQGLKSCHTGLRRTAGWNVPIGTLRPFLNWTGPPEPIEAAVARFFSASCVPGADKGQFPNLCRLCAGTGENKCAFSSQEPYFSYSGAFKCLRDGAGDVAFIRESTVFEDLSDEAERDEYELLCPDNTRKPVDKFKDCHLARVPSHAVVARSVNGKEDAIWNLLRQAQEKFGKDKSPKFQLFGSPSGQKDLLFKDSAIGFSRVPPRIDSGLYLGSGYFTAIQNLRKSEEEVAARRARVVWCAVGEQELRKCNQWSGLSEGSVTCSSASTTEDCIALVLKGEADAMSLDGGYVYTAGKCGLVPVLAENYKSQQSSDPDPNCVDRPVEGYLAVAVVRRSDTSLTWNSVKGKKSCHTAVDRTAGWNIPMGLLFNQTGSCKFDEYFSQSCAPGSDPRSNLCALCIGDEQGENKCVPNSNERYYGYTGAFRCLAENAGDVAFVKDVTVLQNTDGNNNEAWAKDLKLADFALLCLDGKRKPVTEARSCHLAMAPNHAVVSRMDKVERLKQVLLHQQAKFGRNGSDCPDKFCLFQSETKNLLFNDNTECLARLHGKTTYEKYLGPQYVAGITNLKKCSTSPLLEACEFLRK |  | significantly inhibited | 2.02 ± 0.26^¶ mg/mL
